Molecular target: huTIM-3 Fc (R&D; cat.no. 2365-TM) (human) (UniProt Q8TDQ0)
Assay: Galectin-9 blocking ELISA: coated Galectin-9 (competitor), 0.1875 ug/ml huTIM-3 Fc with negative control antibody; signal is huTIM-3 Fc bound

Chain of huTIM-3 Fc (R&D; cat.no. 2365-TM) (human) (Q8TDQ0 22-200 limits assumed): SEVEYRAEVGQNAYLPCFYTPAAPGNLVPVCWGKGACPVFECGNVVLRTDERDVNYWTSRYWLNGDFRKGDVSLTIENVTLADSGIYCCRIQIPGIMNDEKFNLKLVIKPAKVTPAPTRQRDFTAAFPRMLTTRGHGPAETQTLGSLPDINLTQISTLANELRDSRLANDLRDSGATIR

OD: 1.15 OD450
Substance: negative control antibody (Ctrl mAb)
